Reference: US20230054300A1 (PARIS SCIENCES ET LETTRES QUARTIER LATIN, published 2023)

Key:
[1] = molecular target: CLIP-PHloop protein (10xHis-CLIP-tagged glycine receptor β loop) (CLIP tag covalently bound (thioether) to the benzylcytosine at an extremity of the DNA molecule); test: single-molecule magnetic tweezers; SNAP-gephyrin and CLIP-PHloop attached to the DNA molecule; force cycling FLF=0.01 pN for 13 s / FHF=1.1 pN for 52 s; 19.2 °C; GB buffer [continued]
Source text: HF corresponds to the application of a high force (“High Force”); LF corresponds to the application of a low force (“Low Force”). The test molecules can be either associated (A for “Associated”) or dissociated (D for “Dissociated”).

[2] = molecular target: T1, FKBP12 protein having the sequence of SEQ ID NO: 7, with 4-azido-L-phenylalanine at position 1, conjugated to … (Homo sapiens (Human), UniProt P62942 2-108, 4-azido-L-phenylalanine in place of methionine at position 1; the azide is click-coupled to the DBCO-dT at the 5' end of oligo-Tc (Oligo-Tc2, SEQ ID NO: 5), which is ligated to the double-stranded …); test: magnetic tweezers, force cycling, FHF=6 pN, T=303 K, 500 nM rapamycin
T1 construct: In the assay it is present as the binary complex with rapamycin (500 nM)
Source text: (§1) At each passage at FLF=0.05 pN for time TLF=13 s, the test molecules associate, then, after passage at FHF=1.4 pN, they separate after a time indicated as t_HF-A. The high force is applied for time THF=155 s. […] C) Temporal monitoring of the extension of the double-stranded DNA molecule when the force is cycled between high value and low value (TS: schematic diagram of the FHF/FLF cycles). At each passage at FLF=0.05 pN for time TLF=14 s the test molecules associate and then, after passage at FHF=6 pN, they separate after a time indicated as t_HF-A. The high force is applied for time THF=125 s. […] The curves are provided for several temperatures: OT=29.1° C.; […]T=25.4° C.; ⋄ T=21.7° C.; x T=19.2° C. […] F) Variation of XD, the distance separating the transition state from the complex during dissociation, as a function of temperature. […] A linear fit in agreement with the Arrhenius-Bell model, ln[kD⁰]=A−ED/kBT, makes it possible to determine ED, the activation energy of the dissociation reaction.
(§2) Example 10 was performed either at 25° C. or at 30° C. in DB reaction buffer (20 mM K-Hepes pH 7.8, 100 mM KCl, 5 mM MgCl₂, 2 mM DTT, 0.1% Tween-20, 0.1 mg/ml BSA). Measurements were also performed at 19.2° C., 21.7° C., 25.4° C. and 29.1° C. (see FIG. 15E).

[3] = molecular target: T1, FKBP12 protein having the sequence of …; test: magnetic tweezers, force cycling, FHF=1.4 pN, T=303 K, 500 nM rapamycin
Source text: as §1, §2

[4] = molecular target: T1, FKBP12 protein having the sequence of …; test: derived as kA=kD/KD; magnetic tweezers, FCF=0.04 pN, 25 °C, 500 nM rapamycin; derived as kA=kD/KD
Experimental: as §2
(§3) Said fraction of time spent by the test molecules in associated form is determined according to (Σt_{CF-A})/tₜₒₜₐₗ, where tₜₒₜₐₗ is the total time during which the fluctuations are recorded and analyzed.

[5] = molecular target: T1, FKBP12 protein having the sequence of …; test: magnetic tweezers, force cycling, FHF=1.4 pN, T=298 K, 500 nM rapamycin; kD=1/<τD> averaged over several molecules
[6] = molecular target: T1, FKBP12 protein having the sequence of …; test: magnetic tweezers, spontaneous fluctuations at constant force FCF=0.04 pN, 25 °C, 500 nM rapamycin; average over several DNA molecules and inversion; no free FRB in solution; FCF=0.04 pN, 25 C
Experimental: as §2

[7] = molecular target: T1, FKBP12 protein having the sequence of …; test: magnetic tweezers, spontaneous fluctuations at FCF=0.04 pN, 25 °C, 500 nM rapamycin, with 0-200 nM free FRB in solution; average over concentrations; 0-200 nM free FRB in solution; averaged over concentrations
Experimental: as §2, §3

T1 sequence (P62942 other isoform, or with tags, fused parts or gaps limits assumed): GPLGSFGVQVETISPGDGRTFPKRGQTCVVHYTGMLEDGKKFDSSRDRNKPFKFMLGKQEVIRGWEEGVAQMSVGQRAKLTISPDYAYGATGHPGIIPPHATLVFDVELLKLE
Chain of CLIP-PHloop protein (10xHis-CLIP-tagged glycine receptor β loop) (CLIP tag covalently bound (thioether) to the benzylcytosine at an extremity of the DNA molecule) (chain, as listed by the source limits assumed): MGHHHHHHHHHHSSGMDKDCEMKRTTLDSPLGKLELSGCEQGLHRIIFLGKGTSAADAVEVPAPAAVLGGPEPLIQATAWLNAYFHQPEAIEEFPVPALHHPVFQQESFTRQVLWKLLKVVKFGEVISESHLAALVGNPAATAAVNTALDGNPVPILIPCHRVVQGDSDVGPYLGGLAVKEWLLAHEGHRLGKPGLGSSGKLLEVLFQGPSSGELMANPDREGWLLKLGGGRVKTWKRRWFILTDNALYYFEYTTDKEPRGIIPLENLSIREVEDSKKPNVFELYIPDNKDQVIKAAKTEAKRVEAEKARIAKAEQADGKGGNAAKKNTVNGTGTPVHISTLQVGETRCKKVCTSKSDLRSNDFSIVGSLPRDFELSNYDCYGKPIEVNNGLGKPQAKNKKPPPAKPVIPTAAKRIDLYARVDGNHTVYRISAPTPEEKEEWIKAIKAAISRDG

Row | binding result [1] | koff [2] [s⁻¹] | koff [3] [s⁻¹] | kon [4] [M⁻¹ s⁻¹] | koff [5] [s⁻¹] | koff [6] [s⁻¹] | koff [7] [s⁻¹] | Binder
1 | binds | – | – | – | – | – | – | SNAP-gephyrin rC4 (other, SNAP tag covalently bound (thioether) to the benzylguanine at an extremity of the DNA molecule, also called Gephyrin construct rC4) MRGSHHHHHHGSACELSSGLEVLFQGPHMASMDKDCEMKRTTLDSPLGKLELSGCEQGLHEIKLLGKGTSAADAVEVPAPAAVLGGPEPLMQATAWLNAYFHQPEAIEEFPVPALHHPVFQQESFTRQVLWKLLKVVKFGEVISYQQLAALAGNPAATAAVKTALSGNPVPILIPCHRVVSSSGAVGGYEGGLAVKEWLLAHEGHRLGKPGLGSSGGTMATEGMILTNHDHQIRVGVLTVSDSCFRNLAEDRSGINLKDLVQDPSLLGGTISAYKIVPDEIEEIKETLIDWCDEKELNLILTTGGTGFAPRDVTPEATKEVIEREAPGMALAMLMGSLNVTPLGMLSRPVCGIRGKTLIINLPGSKKGSQECFQFILPALPHAIDLLRDAIVKVKEVHDELEDLPSPPPPLSPPPTTSPHKQTEDKGVQCEEEEEEKKDSGVASTEDSSSSHITAAALAAKIPDSIISRGVQVLPRDTASLSTTPSESPRAQATSRLSTASCPTPKARLPSCSSTYSVSEVQSRCSSKENILRASHSAVDITKVARRHRMSPFPLTSMDKAFITVLEMTPVLGTEIINYRDGMGRVLAQDVYAKDNLPPFPASVKDGYAVRAADGPGDRFIIGESQAGEQPTQTVMPGQVMRVTTGAPIPCGADAVVQVEDTELIRESDDGTEELEVRILVQARPGQDIRPIGHDIKRGECVLAKGTHMGPSEIGLLATVGVTEVEVNKFPVVAVMSTGNELLNPEDDLLPGKIRDSNRSTLLATIQEHGYPTINLGIVGDNPDDLLNALNEGISRADVIITSGGVSMGEKDYLKQVLDIDLHAQIHFGRVFMKPGLPTTFATLDIDGVRKIIFALPGNPVSAVVTCNLFVVPALRKMQGILDPRPTIIKARLSCDVKLDPRPEYHRCILTWHHQEPLPWAQSTGNQMSSRLMSMRSANGLLMLPPKTEQYVELHKGEVVDVMVIGRL
2 | – | 0.0649 | 0.0484 | 4.5e+06 | 0.0322 | 0.0341 | 0.0327 | FRB protein (FRB subunit of the mTOR protein complex) having the sequence of SEQ ID NO: 6, with 4-azido-L-phenylalanine at position 2,020, conjugated to an … (other, 4-azido-L-phenylalanine in place of alanine at position 2,020; the azide is click-coupled to the DBCO-dT at the 5' end of oligo-Tc (Oligo-Tc1, SEQ ID NO: 4), which is ligated to the double-stranded DNA molecule, Free FRB added in solution (0-200 nM) is described as identical to the test molecule) GPLGSFILWHEMWHEGLEEASRLYFGERNVKGMFEVLEPLHAMMERGPQTLKETSFNQAYGRDLMEAQEWCRKYMKSGNVKDLTQAWDLYYHVFRRISKQLPQL
